From the RNAGym collection of RNA variant scans (doi:10.1073/pnas.2313332121)

B1: TPR t1 (parent)
chain: GACCAAUCUGCCCUCAGAGCUCGAGAACAUCUUCGGAUGCAGAGGAGGCAGGCUUCGGUGGCGCGAUAGCGCCAACGUCCUCAACCUCCAAUGCAUCCCACCACAUGAUGAUGCCUGAAGAGCCUUGGUUUUUUG

Variants of: B1
Test: polymerase ribozyme fitness, log enrichment relative to wild type (log ratio); higher = more active; in vitro selection for triplet polymerase activity
Summary of the method: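 Streptavidin-bead capture of gel-excised extended constructs, followed by RT-PCR, closed a single triplicate in vitro selection round. That round began by annealing PCR-built, transcribed mutant libraries of each subunit of a heterodimeric triplet polymerase ribozyme with a biotinylated primer, the partner subunit and triplets, then incubating them frozen at −7 °C. After Illumina sequencing of inputs and outputs, genotypes needed ≥10 input reads and ≥1 read per output. Fitness is the base-2 logarithm of genotype enrichment over wild-type enrichment, using inverse-variance-weighted replicate averages.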

In order of rising “polymerase ribozyme fitness (log ratio)” value:
1. G61C C80A C101A G110A U112G C115U  -8.21
2. C13U U14A C15G G63A U81G U109A  -7.58
3. G23U C70G A91C C98U  -7.47
4. G39U C70U U96G G113U  -7.29
5. C12U U54G U55A G61A G110A A118C U129A  -6.68
6. C28G G44U A111C G117C  -6.59
7. U14G A37C G47A G110U G120U  -5.99
8. G23U C123A  -5.92
9. G19A G51C  -5.83
10. U59C U109G  -5.76
11. G10C A108C C114G  -5.74
12. G42U G47C  -5.66
13. C15A A37G G45U G93U U112C G122C C123G U125A  -5.64
14. C20G C53G G57C A91G  -5.64
15. C53G C98G  -5.63
16. A5U C28U C62G  -5.59
17. A41G C49U G110A G122A G127U  -5.4
18. A26G C104U G110C C115A  -5.13
19. A100C C102G  -4.98
20. A29G A37C C102A  -4.8
21. A27C G77A  -4.66
22. C15G A66U  -4.55
23. G48A U54G G71U C85U  -4.47
24. C40U C56A C73U C82G C97U C115U  -4.44
25. C12U C98A  -4.29
26. C28G A84U A103U G110C  -4.22
27. A111C A119U U125A  -4.12
28. C12U C20G A83C C98U A121U  -4.1
29. C28U G113U  -4.02
30. C53A G71A C115U  -3.94
31. C4U A5U U59G C64U  -3.75
32. G35A  -3.65
33. A26U G48C C86G  -3.65
34. U126G U130G  -3.64
35. A84U A103U G110C  -3.57
36. C13A C28U  -3.53
37. G63A G110U  -3.42
38. C70G C82G C124A U131G  -3.38
39. C4G C8G G44A U131G  -3.14
40. G107C A121U  -3.13
41. A26U A118C C123U  -3.12
42. A43C C49A  -3.08
43. G61U G113A C115U  -3.08
44. A95C C102A U133A G135C  -2.89
45. G47A C56U A105U  -2.73
46. C56U A74G G110A U112A  -2.67
47. U7G G19U G42A G61A  -2.64
48. G77A A91G C114U  -2.54
49. C102U U130G  -2.52
50. U7G G10A G45U U96G G117U  -2.43
51. C11G C114G  -2.38
52. C53U G63A U96A  -2.3
53. A2U G61A  -2.17
54. C11U A46G G51U C80U  -1.92
55. G42U G52A C101U  -1.81
56. C8A G113U  -1.81
57. A5C U9C G61C  -1.78
58. G69A C115A  -1.77
59. A18U C56U  -1.72
60. G63A G127C  -1.62
61. G39U C49A A100U U106A  -1.51
62. A5C C22A G69U C80U C114A  -1.41
63. C20U G61C C82A C124G  -1.38
64. C49G G69U C94U C114A G120A  -1.33
65. C73U C114U  -1.31
66. A29U G58C G120C C124A  -1.02
67. U55A G61U C85A C94A  -0.999
68. A41G G127C  -0.942
69. C3U C70U  -0.813
70. G45U C123A  -0.805
71. C56U U59A  -0.76
72. C12G A100C  -0.741
73. U7A G47A  -0.612
74. G60U U130G  -0.482
75. C8U G45A G52C C123G  -0.41
76. A90U A118U  -0.274
77. C13U G57C U78C  0.238
78. U78C C104U  0.332
79. C11U C40U A121C U129G  0.406
80. C8G A16G A41G  0.487
81. C13A A46C C124G  0.675
82. U59C C123U  1.16
83. A16G U116C  1.6
